14 sequences from the DeepSol protein solubility set can be followed below.

The data set in a line: soluble on expression in E. coli; label from the status in PepcDB or PDB records.
Take “MGAIEDIYEDLETDVPEEEFREAVEEKVEQMGGLADEETAAMLLAHELNENEVNAIADIEPGMDEVKFLAKVMAIGDLKTFERDDEDEDGRVINVEAADESGSLRLAFWDGQAVDIDEGKLEVGDVLRVKGRPKDGYNGLEVSVDKAEPDEDATIDVEPGAGSSIDALTMGQSDVTLRGLVLDTDSIRTFDRDDGSEGRVSNLTLGDETGRIRVTLWDDRADRADELDAGAAVEIIDGYVRERDGSLELHVGDQGAVDEVEDDVAFEPDADPIAEVELEETADIAGVVRSADPKRTFDRDDGSEGQVRNVRIQDATGDIRVALWGDKADKDIAPGDEVLAADVEIQDGWQDDKEASASWNSTIVVLDDGADLATGGAGGGASAETTDAEHAGLSSFGDEGDDTDADSSGNEAAAVSAGTGDTSPDGGAQSAGQQVEFTGTVVQTGDPVVLDDGEQTMSVETGERVQLGQEITVRGELRDDRLHAEDVFLEHHHHHH”: the “soluble on expression in E. coli” value is recorded as “not soluble”. For the sequence “MGANTKYKDSVFSLLFSDPDLLRELYCALEGVSLPADIPVTINTLRDALFMGMINDISFEIGGKLIILIEHQSTINPNMALRLLMYIARVYEKLIGDRNIYSSRLIHIPRPEFYVLYNGVTPYPDRTTLKLSDMFEKAGAFGLPEKGSAALELEVNVININEGKNEVIAKKCKTLAGYSAFVAKVRAFEKEIGDKTEAMKQAVRYCRDHDILKEFLEQNGTEVMNMLINEWNIEDAKKVWYEDGLSQGLEKGLEKGREEGREEESFSIAQNLVKLGLPIETIISATQLDPDKVKALYQQ”, the “soluble on expression in E. coli” value is given as “soluble”. Consider “MGARGRMAASKGAVMSLLLDAYQKRDKLAMVSFRKNEAFVNLPVTSSIELAARMLKEMPVGGRTPFSAGLLKGYEIAQNYLRKEPGGRPLIILVTDGKANRAIGQGKPLDEVFTISEKISREERIRFLVVDTEEPGLVTFGLAKKIAGLLDAWYYRIDDLRADTLVSIVKTMMP”, for which the “soluble on expression in E. coli” value is reported as “not soluble”. In the case of “MGATEVGDENAGTVSAQPCSRQCCLEDFWALLRRHPAPEPPPWTPVLYPLRTSLPSTLAVFLNLGLSFPKTSITSSWRDWTLHLPFAWSLSVRGPSQCVHVRGGGDHIRRRGG”, the “soluble on expression in E. coli” value is on record as “not soluble”. On to “MGATMKPSNKESVQDTVARLRENRNQQQSKVGKNATHSSKEQTPLDTPTRSKASKNAKAVSAAERKTEANKIIKHLLLGELTQGQALKSLRINILGLKQDVFARLVDVSRKTLSDIENDRGSYNTEILNKVFKPFSLKIGLLPSSPDALKSLLMDGEDG”, for which the “soluble on expression in E. coli” value is on record as “soluble”. With “MGCSSSALNKAGDSSRFPSVTSNEHFSTAEESESCFAQPKPHALGRESTVDGNVQRESRPPLQKLKVSAEPTANGVKPLQEQPLAKDVAPGRDATDQSGSTEKTQPGEGLEESGPPQPGGKEDAPAAEGKKKDAGAGTEAESLKGNAEAQPLGPEAKGQPLQAAVEKDSLRAVEVTENPQTAAEMKPLGTTENVLTLQIAGELQPQGTVGKDEQAPLLETISKENESPEILEGSQFVETAEEQQLQATLGKEEQPQLLERIPKENVTPEVLDRSQLVEKPVMNDPFHKTPEGPGNMEQIQPEGIVGSMEHPARNVEAGAYVEMIRNIHTNEEDQRIEGETGEKVETDMENEKVSEGAETKEEETGEVVDLSAAT”, the “soluble on expression in E. coli” value was “soluble”. The entry for “MGDICETVEATFHGVAYLLTVSTIEGETLCVEVEQKSDCSRWRGDFTSRYIEDITAKTGNFKKFPVFVKMLLSALKQASDSVFVDLLTYQDLEVLKSRKAGGQAPPPRTQPPNNKRYLIMTYAAEFDRVHYPLPLLFEENPDPQHLKRIISQLRSEVEGLQVEAGNRRGGEVSAELRRLREENAALQRQLKQMERSGSGVGAGAESSEARELARELRTVRKERDLLQARVEAAEAELERERGLHRRELRRRAKEQQELVDELGRCKEQIRELKMRIRQLTEDLEARDRRMNSTDRIRSVYARGSNDGSTSGVAPRRPSSGGRGPSSNYMAPTRGADSRSNSRGRGTSSAERSRPNSAPIGGPRPRFDPTEYVRQRKERESAAVGGRRSNAPTPPRSAGTSRASSVVGSRPASAERLPPIRTASPTNSRPSSTERYRPGSGGPPGRTSAGGSRGAADRAGARGPDPYAPRSRGASPSGRATAWGEPGASGGGAGGWSKFPGGGGGGVGGSGQRISSNSPRSMSPARALAEVKQKLSTFVAGRGGSLQGDDASSAHGEHMSQSSKSQVFEDATAEIADIDSRLHALQDFLRMAKTSSTSTSTTQA” is “not soluble”; for “MGDTDRKLFVLDTNILLHEPFAIFSFQEHDVVIPMTVLEELDRIKDSKRDVARDARVAIRALEDLFKDATPDEISEGIPVSKEKPDQGSISILADFELQETVKAFADKAGDNRILNAVLYLQNKRAPREVVLITKDINMRLRAKGAGVRFVEDYRTDQLIDDIQYLTKGFQQREGDFWSGIDEVESYALGGKTYHKLSREPFDPTFINQYVIDEDSDFAGRVETINEDKLTLLDLSRERMMHRRAWDITPKNIYQAMALDALLDPDIDLVILTGAAGSGKTLLAMAAALEQTIEKGMFDKIIVTRNTPDIGESIGFLPGSEEEKMMPWLAAVTDTLEALHKHDHCTEGSLKYICDKANIQFKSINFMRGRSIQNAFVLLDECQNLTASQIKTIITRCGEGTKIVCSGNLAQIDSHYLTPVTSGLTYMVERFKNFEGSANIHLNGVVRSRLAEFAEENL” it is “soluble”. For the sequence “MGDVVADALEKLSADQIEQFRKYFNMFDKEGKGYIRATQVGQILRTMGQAFEERDLKQLIKEFDADGSGEIEFEEFAAMVANFVVNNENDEGLEEELREAFRLYDKEGNGYINVSDLRDILRALDDNVSEEELDEMIAEIDADGSGTVDFDEFMEMMSGE”, the “soluble on expression in E. coli” value is on record as “soluble”. For “MGDVVEMTSELGFKYSILASGSTGNSFYLETPEKKILVDAGLSGKKITSLLAEIDRDPSDLDAILVTHEHKDHIHGVGVLARKYGMDIYANEKTWQIMDSKNMLGKVDNSQKHIFSRGKLLTFGDIDIESFGVSHDAINPQFYRFMKDGKSFVMLTDTGYVSDRMAGLIENADGYLIESNHDIEILRAGSYPWSTKQRILSDQGHLCNEDGADAMIRTIGNKTKKIYLGHLSKENNIKELAYMTMENQLARADFGVGTDFKIFVTSPDTATPLTDILEHHHHHH”, the “soluble on expression in E. coli” value is “not soluble”.

In the case of “MGEEKKKRTVEITIGGKLRSFDIDDPVLPDWVEEKKLSAGNFPYDKKMKREDYDATLEALQVELVKVQFWLQATGKRVMAVFEGRDAAGKGGAIFATHAYLNPRYARVVALTKPTETERGQWYFQRYISHFPTAGEFVLFDRSWYNRAGVEPVMGFCTPDEHKRFLKETPRLEKMLVHDDIHLFKFWLDIGRETQIERFHDRRQSPLKCWKLSDMDIAALTKWDDYTQKRDEMLEKTHTDAAPWTVVRANDKRRARVNLIRHILLALDYEGKDRQAIGEIDDKILGSGPDFLK”, the “soluble on expression in E. coli” value was “not soluble”.

On to “MGELIEGVWHPNWYDTASNGGRFVRSRARFRNWITADGSPGPSGEGGFPAEAGRYHLYVAHACPWAHRTMIFRALKDLAPLIDVSVVHPEMLEDGWTFDRSFPGATGDRLYGLAFLREIYLKADPGISARVTVPVLWDRKRETIVSNESAEIIRMFNAAFDHLTGNRVDFLPEGDLAEIDRLNDRIYGTVNNGVYRAGFATTQEAYDEAAAPLFETLDWLEERLATRRYLVGDRLTEADWRLFTTLVRFDKVYHTHFKCNRRQIVQYPNLWGWLRELWQVPGVAETVHFDHIVRHYYFSHDTINPHRIVPLTPDPDFAAPHGRDQLFQASRLR”, for which the “soluble on expression in E. coli” value is listed as “not soluble”. Take “MGEPVILEAVRTPIGKRNGALRAYRPDALYAKVLDALLERTGIDPGLIGDVVTGCVTQVGEQGANVGRLGVLLSRLPKEVPAVSLNRMCGSSQQAVHFAAQAIAAGDVDFAIAGGVESMTRVPMFADIGGGFHTLNPELGKRYELVHQGESAERIAERYGFCREELDEWGYLSHKRAARATEEGRFSAQILPLEGLDAEGRPFLLTRDEGVRPDVDYEKMLALKPVFREDGVVTAGNSSQISDGAAALLLGDREKALALGLRPRARFLARVVVAGDPTLQLLEVIPAAKKALERAGLSLRDVDVIEVNEAFASVVLAFLRELGADPEKVNPNGGAIAHGHPLGATGAVLMTKLLYELERTGSEFGLQVMCIGHGQATATVIQRL”: the “soluble on expression in E. coli” value is “soluble”.

As for “MGEQQLDCALDLMRRLPPQHCDKNLTDLIDLCPHLVDDLLSTIDQPLKIAADRETGKQYLLCDYNRDGDSYRSPWSNTYDPPLEDGQLPSEKRRKMEIEANAAFESYRDLYFEGGVSSVYFWDLDNGGFAGIVLIKKEGDGAKNITGCWDSIHVIEITERARQAHYKLTSTIMLWLQTNKSSSGVMNLGGSLTRQHEMDAPINDQNTHLANMGRMIEDQESKMRLTINEIYFGKTKKVMSDLRSTEKQSELEKQDEIVRELNNAMANRGN”, the “soluble on expression in E. coli” value is “soluble”.
